Data on twelve molecules can be found in PMC8545111, “Molecular Basis of the Versatile Regulatory Mechanism of HtrA-Type Protease AlgW from Pseudomonas aeruginosa” (mBio, 2021).

For data set [1], the system named is CC(C)C[C@H](NC(=O)[C@@H](NC(=O)c1ccccc1N)C(C)C)C(=O)N[C@@H](C)C(=O)NCC(=O)Nc1ccc([N+](=O)[O-])cc1. The experiment in a line: Fluorogenic Abz-VLAG-pNA cleavage by peptide-activated AlgW and LA loop mutants (200 nM), 25 mM Tris pH 7.5, 150 mM NaCl, 37°C, Michaelis-Menten fit. In kind it is biochemical. As to the method:
Based on the identified MucA and MucB cleavage sites for AlgW ([6], [13]), self-quenching fluorogenic tetrapeptides derived from 134-VLAG-137 of MucA (Abz-VLAG-pNA), 211-TVAW-214 of MucB (Abz-TVAW-pNA), and alanine tetrapeptide (Abz-AAAA-pNA) were synthesized and subjected to real-time measurement of AlgW proteolytic activity in the presence of excessive peptides (10 mM) (Fig. 2A). Compared with the negative-control group (using Abz-AAAA-pNA substrate), both Abz-VLAG-pNA and Abz-TVAW-pNA could be efficiently cleaved by AlgW. […] Considering that MucA is the major target of AlgW, substrate Abz-VLAG-pNA and decapeptide activator SVRDELRWVF were selected to establish a real-time AlgW assay to investigate the kinetic mechanism.
(§1) For the enzyme mechanism of AlgW (30–389) and mutants, two internally quenched fluorescent peptide substrates incorporating the peptidase cleavage site of MucA/MucB, Abz-VLAG-pNA and Abz-TVAW-pNA, were designed and synthesized (GL Biochem Shanghai Ltd., China). In the intact peptide, the fluorescence of the anthraniloyl group is quenched by the P-nitroaniline (Abz is a fluorogenic group, and pNA is a quencher of fluorescence). This quenched fluorescence is liberated upon cleavage of peptide by 200 nM AlgW and mutants (200/3 nM for trimer), resulting in increased fluorescence that can then be monitored fluorometrically. Prior to the assay, all enzyme preparations were incubated with 10 mM agonist peptides (WVF or SVRDELRWVF) for 30 min at room temperature. All assays were placed in a buffer containing 25 mM Tris (pH 7.5) and 150 mM NaCl at 37°C for 1 h, and the final assay volume was 100 μl. The fluorescent degradation products were monitored at 60-s intervals at fluorescence wavelength—λex = 310 nm, λem = 420 nm ([41]). All data points were representative of three independent determinations and were simulated with solid lines with the formula Y = Vmax · X^h/(Km ^h + X^h) or Y = Vmax · X^h/(Khalf^h + X^h) or the Michaelis-Menten formula (Y = Vmax · X/[Km + X]). Substrate versus velocity was used to determine Km and Vmax, and agonists versus velocity was used to determine the half-maximal activation concentration and maximum activation rate of agonists. The fitting and calculation of data were carried out using Prism 7 (GraphPad, CA, USA).

For data set [2], the system named is AlgW and mutants. The experiment in a line: Apparent activation parameters of AlgW and mutants (peptide agonist gradient). The conditions noted are these: peptide activator (decapeptide) gradient, substrate Abz-VLAG-pNA, Michaelis-Menten fit, means of three independent determinations; for EC50: read-out: Half-maximal activation concn; for Maximal cleavage activity: Tris pH 7.5, 150 mM NaCl, 37°C. The class given is biochemical, Pseudomonas aeruginosa.
Description: as §1

As for “AlgW-TTK (71–73)A (Pseudomonas aeruginosa PAO1; K73A/T71A/T72A)”, in data set [1], the Km amounted to 125.1 ± 19.87 µM, the maximum rate (Vmax) was found to be 1430 µM/min and the kcat/Km was 2.86e+06 ± 199000 M⁻¹ s⁻¹.

Consider “AlgW-K73A (Pseudomonas aeruginosa PAO1; K73A)”, for which, in data set [1], the Michaelis constant (Km) amounted to 247.9 ± 93.04 µM, the Vmax worked out at 188 µM/min and the kcat/Km came to 189000 ± 39700 M⁻¹ s⁻¹.

As to “AlgW-T71A (Pseudomonas aeruginosa PAO1; T71A)”, in data set [1], the Michaelis-Menten constant (Km) came out at 48.29 ± 6.19 µM, the maximal velocity (Vmax) came to 154 µM/min and the kcat/Km stood at 799000 ± 33200 M⁻¹ s⁻¹.

Turning to “AlgW-T72A (Pseudomonas aeruginosa PAO1; T72A)”, in data set [1], the Km was found to be 86.69 ± 15.8 µM, the Vmax is 766 µM/min and the specificity constant (kcat/Km) is 2.21e+06 ± 156000 M⁻¹ s⁻¹.

For “AlgW-ESS (103–105)A (Pseudomonas aeruginosa PAO1; E103A/S104A/S105A)”, in data set [1], the Michaelis-Menten constant (Km) was found to be 123.1 ± 19.44 µM, the maximal velocity (Vmax) stood at 873 µM/min and the catalytic efficiency (kcat/Km) amounted to 1.77e+06 ± 122000 M⁻¹ s⁻¹.

B1: AlgW-R279A (protein)
chain: VGLPRQEVHVEQAPLLSRLQEGPVSYANAVSRAAPAVANLYTTKMVSKPSHPLFDDPMFRRFFGDNLPQQKRMESSLGSAVIMSAEGYLLTNNHVTAGADQIIVALRDGRETIAQLVGSDPETDLAVLKIDLKNLPAMTLGRSDGIRTGDVCLAIGNPFGVGQTVTMGIISATGRNQLGLNTYEDFIQTDAAINPGNSGGALVDAAGNLIGINTAIFSKSGGSQGIGFAIPTKLALEVMQSIIEHGQVIAGWLGVEVKALTPELAESLGLGETAGIVVAGVYRDGPAARGGLLPGDVILTIDKQEASDGRRSMNQVARTRPGQKISIVVLRNGQKVNLTAEVGLRPPPAPAPQQKQDGGE
modifications: left off: His6, C-terminal, state not stated
In the case of B1, in data set [2], the EC50 came to 2.19 ± 0.99 µM and the Maximal cleavage activity was 26.87 ± 3.21 µM/min.

B2: AlgW-E285A (protein)
chain: VGLPRQEVHVEQAPLLSRLQEGPVSYANAVSRAAPAVANLYTTKMVSKPSHPLFDDPMFRRFFGDNLPQQKRMESSLGSAVIMSAEGYLLTNNHVTAGADQIIVALRDGRETIAQLVGSDPETDLAVLKIDLKNLPAMTLGRSDGIRTGDVCLAIGNPFGVGQTVTMGIISATGRNQLGLNTYEDFIQTDAAINPGNSGGALVDAAGNLIGINTAIFSKSGGSQGIGFAIPTKLALEVMQSIIEHGQVIRGWLGVAVKALTPELAESLGLGETAGIVVAGVYRDGPAARGGLLPGDVILTIDKQEASDGRRSMNQVARTRPGQKISIVVLRNGQKVNLTAEVGLRPPPAPAPQQKQDGGE
modifications: left off: His6, C-terminal, state not stated
Take B2: in data set [2], the EC50 was found to be 3.84 ± 1.09 µM and the Maximal cleavage activity amounted to 57.5 ± 4.9 µM/min.

B3: AlgW-V284A (protein)
chain: VGLPRQEVHVEQAPLLSRLQEGPVSYANAVSRAAPAVANLYTTKMVSKPSHPLFDDPMFRRFFGDNLPQQKRMESSLGSAVIMSAEGYLLTNNHVTAGADQIIVALRDGRETIAQLVGSDPETDLAVLKIDLKNLPAMTLGRSDGIRTGDVCLAIGNPFGVGQTVTMGIISATGRNQLGLNTYEDFIQTDAAINPGNSGGALVDAAGNLIGINTAIFSKSGGSQGIGFAIPTKLALEVMQSIIEHGQVIRGWLGAEVKALTPELAESLGLGETAGIVVAGVYRDGPAARGGLLPGDVILTIDKQEASDGRRSMNQVARTRPGQKISIVVLRNGQKVNLTAEVGLRPPPAPAPQQKQDGGE
modifications: left off: His6, C-terminal, state not stated
Take B3: in data set [2], the EC50 came to 3.56 ± 0.73 µM and the Maximal cleavage activity worked out at 63.13 ± 3.82 µM/min.

B4: AlgW-W281A (protein)
chain: VGLPRQEVHVEQAPLLSRLQEGPVSYANAVSRAAPAVANLYTTKMVSKPSHPLFDDPMFRRFFGDNLPQQKRMESSLGSAVIMSAEGYLLTNNHVTAGADQIIVALRDGRETIAQLVGSDPETDLAVLKIDLKNLPAMTLGRSDGIRTGDVCLAIGNPFGVGQTVTMGIISATGRNQLGLNTYEDFIQTDAAINPGNSGGALVDAAGNLIGINTAIFSKSGGSQGIGFAIPTKLALEVMQSIIEHGQVIRGALGVEVKALTPELAESLGLGETAGIVVAGVYRDGPAARGGLLPGDVILTIDKQEASDGRRSMNQVARTRPGQKISIVVLRNGQKVNLTAEVGLRPPPAPAPQQKQDGGE
modifications: left off: His6, C-terminal, state not stated
Regarding B4, in data set [2], the EC50 is 1.51 ± 0.72 µM and the Maximal cleavage activity was determined as 10.32 ± 1.51 µM/min.

B5: AlgW-R347A (protein)
chain: VGLPRQEVHVEQAPLLSRLQEGPVSYANAVSRAAPAVANLYTTKMVSKPSHPLFDDPMFRRFFGDNLPQQKRMESSLGSAVIMSAEGYLLTNNHVTAGADQIIVALRDGRETIAQLVGSDPETDLAVLKIDLKNLPAMTLGRSDGIRTGDVCLAIGNPFGVGQTVTMGIISATGRNQLGLNTYEDFIQTDAAINPGNSGGALVDAAGNLIGINTAIFSKSGGSQGIGFAIPTKLALEVMQSIIEHGQVIRGWLGVEVKALTPELAESLGLGETAGIVVAGVYRDGPAARGGLLPGDVILTIDKQEASDGRRSMNQVAATRPGQKISIVVLRNGQKVNLTAEVGLRPPPAPAPQQKQDGGE
modifications: left off: His6, C-terminal, state not stated
In the case of B5, in data set [2], the EC50 turned out to be 1.85 ± 0.99 µM and the Maximal cleavage activity was found to be 63.5 ± 8.42 µM/min.

B6: AlgW-K287A (protein)
chain: VGLPRQEVHVEQAPLLSRLQEGPVSYANAVSRAAPAVANLYTTKMVSKPSHPLFDDPMFRRFFGDNLPQQKRMESSLGSAVIMSAEGYLLTNNHVTAGADQIIVALRDGRETIAQLVGSDPETDLAVLKIDLKNLPAMTLGRSDGIRTGDVCLAIGNPFGVGQTVTMGIISATGRNQLGLNTYEDFIQTDAAINPGNSGGALVDAAGNLIGINTAIFSKSGGSQGIGFAIPTKLALEVMQSIIEHGQVIRGWLGVEVAALTPELAESLGLGETAGIVVAGVYRDGPAARGGLLPGDVILTIDKQEASDGRRSMNQVARTRPGQKISIVVLRNGQKVNLTAEVGLRPPPAPAPQQKQDGGE
modifications: left off: His6, C-terminal, state not stated
Take B6: in data set [2], the EC50 came to 6.53 ± 1.38 µM and the Maximal cleavage activity was found to be 49.42 ± 3.59 µM/min.

B7: AlgW-L282A (protein)
chain: VGLPRQEVHVEQAPLLSRLQEGPVSYANAVSRAAPAVANLYTTKMVSKPSHPLFDDPMFRRFFGDNLPQQKRMESSLGSAVIMSAEGYLLTNNHVTAGADQIIVALRDGRETIAQLVGSDPETDLAVLKIDLKNLPAMTLGRSDGIRTGDVCLAIGNPFGVGQTVTMGIISATGRNQLGLNTYEDFIQTDAAINPGNSGGALVDAAGNLIGINTAIFSKSGGSQGIGFAIPTKLALEVMQSIIEHGQVIRGWAGVEVKALTPELAESLGLGETAGIVVAGVYRDGPAARGGLLPGDVILTIDKQEASDGRRSMNQVARTRPGQKISIVVLRNGQKVNLTAEVGLRPPPAPAPQQKQDGGE
modifications: left off: His6, C-terminal, state not stated
As to B7, in data set [2], the EC50 is 2.76 ± 1.19 µM and the Maximal cleavage activity worked out at 13.24 ± 1.59 µM/min.

In general, Km refers to the substrate concentration at which the rate is half of its maximum. Broadly, the Vmax is the rate approached at saturating substrate. As a reminder, the kcat/Km is the second-order rate constant that governs catalysis at low substrate concentration.
